In patent US20210060185A1:

Target: T1, GvpA of Anabaena flos-aquae (primary shell protein of the gas vesicle) (Anabaena flos-aquae) (UniProt P10397)
T1 sequence: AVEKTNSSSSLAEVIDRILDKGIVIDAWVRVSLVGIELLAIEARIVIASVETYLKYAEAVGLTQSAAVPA
Assay: cell-based or functional assay

nonlinear ultrasound contrast of Nissle cells expressing ASGClpXP, with against without aTc induction of WT GvpC: 10 dB
B1: WT Ana GvpC (under pTet promoter) (protein)
chain: MISLMAKIRQEHQSIAEKVAELSLETREFLSVTTAKRQEQAEKQAQELQAFYKDLQETSQQFLSETAQARIAQAEKQAQELLAFHKELQETSQQFLSATAQARIAQAEKQAQELLAFYQEVRETSQQFLSATAQARIAQAEKQAQELLAFHKELQETSQQFLSATADARTAQAKEQKESLLKFRQDLFVSIFG
